Measured values: US20130028925A1

Molecular target: HSV-2 glycoprotein E (gE2) as expressed by wild-type HSV-2 strain 2.12 (infected Cos cells; virion envelope) (Herpes Simplex Virus-2) (UniProt P89475)
Assay: rosetting of IgG-coated sheep red blood cells on Cos cells infected with HSV-2 at MOI 2, 12 h; uninfected cells and gE2-deletion virus formed none

Chain of UniProt P89475 (P89475 21-545 limits assumed): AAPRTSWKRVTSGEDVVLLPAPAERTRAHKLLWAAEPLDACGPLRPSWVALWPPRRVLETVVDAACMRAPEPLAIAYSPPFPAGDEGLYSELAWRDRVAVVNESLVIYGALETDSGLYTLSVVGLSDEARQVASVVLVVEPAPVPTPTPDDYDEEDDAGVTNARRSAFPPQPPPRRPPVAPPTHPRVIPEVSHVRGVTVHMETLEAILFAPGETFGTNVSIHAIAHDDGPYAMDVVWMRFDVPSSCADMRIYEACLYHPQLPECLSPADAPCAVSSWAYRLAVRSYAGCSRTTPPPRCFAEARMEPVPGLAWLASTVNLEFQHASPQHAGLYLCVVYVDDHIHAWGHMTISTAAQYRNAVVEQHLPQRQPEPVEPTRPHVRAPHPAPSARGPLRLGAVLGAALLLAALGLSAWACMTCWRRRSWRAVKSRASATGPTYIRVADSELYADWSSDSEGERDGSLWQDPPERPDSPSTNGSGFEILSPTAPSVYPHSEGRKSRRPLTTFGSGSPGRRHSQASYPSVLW

Substance: rabbit anti-sheep IgG on sheep red blood cells (IgG-coated red blood cells) (antibody)
- percent of infected cells forming rosettes: 36%
